Test results published in paper PMC5923229, “The cysteine-reactive small molecule ebselen facilitates effective SOD1 maturation” (Nature Communications, 2018).

B1: artificial disulphide knockout SOD1 mutant C57A/C146A (enzyme)
chain: not shown
notes: superoxide dismutase-1 (SOD1), C57A/C146A; also called ebselen-free SOD1; source: E. coli BL21 (DE3), purified (diethylaminoethyl cellulose); treated with DMSO
B2: copper chaperone for SOD1 (hCCS), wild-type (natural protein, UniProt O14618 1-274, looked up)
chain: MASDSGNQGTLCTLEFAVQMTCQSCVDAVRKSLQGVAGVQDVEVHLEDQMVLVHTTLPSQEVQALLEGTGRQAVLKGMGSGQLQNLGAAVAILGGPGTVQGVVRFLQLTPERCLIEGTIDGLEPGLHGLHVHQYGDLTNNCNSCGNHFNPDGASHGGPQDSDRHRGDLGNVRADADGRAIFRMEDEQLKVWDVIGRSLIIDEGEDDLGRGGHPLSKITGNSGERLACGIIARSAGLFQNPKQICSCDGLTIWEERGRPIAGKGRKESAQPPAHL
notes: copper chaperone for SOD1 (hCCS), wild type; Desalted into ligand-free, nitrogen-purged buffer

Columns and labels:
[1] = molecular target: B2; assay: SEC; C57A/C146A SOD1 with or without ebselen (25 uM SOD1, 100 uM ebselen, 3 h, 20 C) and hCCS; complex formed with 250 pmol of both SOD1 and hCCS; settings: both partners purified
[2] = molecular target: the molecule itself; assay: as above

Binder | binding result [1] | stoichiometry N [2]
B1 | binds | –
B2 | – | 2
